Earlier results as cited in paper PMC9085562.

Key:
[1] = target: H3K9me3 peptide (Homo sapiens) (UniProt P68431); assay: fluorescence polarization
[2] = target: H3K9me1 peptide (Homo sapiens) (UniProt P68431)

- Kd [1]: 3.2 µM
- Kd [2]: 12.5 µM
Substance: Cbx1 (from UniProt P83916)
